Experimental data from PMC5074588, “TCS1, a Microtubule-Binding Protein, Interacts with KCBP/ZWICHEL to Regulate Trichome Cell Shape in Arabidopsis thaliana” (PLoS Genetics, 2016).

Target: tubulins (tubulin dimers; paclitaxel-stabilized microtubules)
Assay: co-sedimentation; different concentrations of the protein added to paclitaxel-stabilized microtubules (prepolymerized from 8 uM tubulins in Fig 5A, 5 uM in S7 Fig) in PEMT buffer (1 mM MgCl2, 1 mM EGTA, 100 mM PIPES, 20 uM taxol, pH 6.9); 25 C 30 min; 100,000g 30 min; SDS-PAGE, Coomassie
Conditions: both partners purified

Chain of tubulins (tubulin dimers; paclitaxel-stabilized microtubules) (chain, as listed by the source, chain 1 of 2): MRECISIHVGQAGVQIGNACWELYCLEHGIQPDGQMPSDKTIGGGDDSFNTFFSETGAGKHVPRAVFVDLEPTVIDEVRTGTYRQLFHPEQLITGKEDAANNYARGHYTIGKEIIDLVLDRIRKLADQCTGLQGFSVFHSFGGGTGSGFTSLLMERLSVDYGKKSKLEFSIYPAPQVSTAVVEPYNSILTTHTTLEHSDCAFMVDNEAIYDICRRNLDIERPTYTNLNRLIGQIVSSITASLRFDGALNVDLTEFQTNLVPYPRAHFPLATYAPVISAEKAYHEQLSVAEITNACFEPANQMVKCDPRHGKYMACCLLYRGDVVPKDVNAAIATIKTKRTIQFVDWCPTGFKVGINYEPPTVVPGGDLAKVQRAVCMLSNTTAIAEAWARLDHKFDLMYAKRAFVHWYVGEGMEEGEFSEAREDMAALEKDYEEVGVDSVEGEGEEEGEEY
Chain of tubulins (tubulin dimers; paclitaxel-stabilized microtubules) (chain, as listed by the source, chain 2 of 2): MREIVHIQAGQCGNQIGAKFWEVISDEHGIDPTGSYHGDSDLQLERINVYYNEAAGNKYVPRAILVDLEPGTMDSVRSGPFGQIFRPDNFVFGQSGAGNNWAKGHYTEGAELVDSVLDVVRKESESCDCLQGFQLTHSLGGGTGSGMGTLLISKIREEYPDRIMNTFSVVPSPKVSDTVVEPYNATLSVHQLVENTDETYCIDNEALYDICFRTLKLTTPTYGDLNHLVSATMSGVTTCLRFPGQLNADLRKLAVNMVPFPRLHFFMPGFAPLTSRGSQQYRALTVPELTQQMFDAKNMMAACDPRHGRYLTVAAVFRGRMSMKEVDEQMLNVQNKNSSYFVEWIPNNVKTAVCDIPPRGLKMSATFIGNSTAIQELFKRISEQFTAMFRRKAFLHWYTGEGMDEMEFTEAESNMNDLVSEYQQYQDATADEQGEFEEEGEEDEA

B1: MBP-TCS1 (TRICHOME CELL SHAPE 1 fused to maltose binding protein) (natural protein, Arabidopsis thaliana, UniProt Q0WSY2 1-982, looked up)
chain: MDRKSWPWKKKSSEKTATVTEVVDQENGKKPSYIQISFDQYTNLNGLKDEVKSYEEKVTKLEDQIKDLDLKLSTANADIVAKEVLVKQHSKVAEEAVTGWEKAEAEASALKTHLETITLAKLTVEDRAAHLDGALKECMRQIRSLKEENEQKLHDVIATKTNQMDNLRAEFESRIGEYEEELLRCGAENDALSRSLQERSNMLMRISEEKSQAESEIEHLKNNIESCEREINTLKYETHVITKELEIRNEEKNMSMRSAEAANKQHLEGVKKIAKLEAECQRLRTLVRKKLPGPAALAQMKMEVESLGFGDHRQDHRQRRSPVRPSSPLMSPMSHMSQVSEFSLDNMQKFHKENDLLTERLLAMEEETKMLKEALAKRNSELQVSRNLCAKTANRLQTLEAQMMSKSPTKRGFEMPAEIFSRQNASNPPSMASMSEDGNEDARSVAGSLMSELSQSNKDKANAKIKKTESANQLELMDDFLEMEKLACLPNGSNANGSTDHSSADSDAEIPPATQLKKRISNVLQSLPKDAAFEKILAEIQCAVKDAGVKLPSKSHGANLNGLTEEKVIAMSNETTEEKVTIVEVITQELSDALSQIYQFVTYLSKEATACSENRTFSQKVQEFSTTFEGVLGKEKTLVDFLFDLSRVLVEASELKIDVLGFHTSTVEIHSPDCIDKVALPENKALQKDSSGEHYQNGCSQSSDSEIPDDCNGTSGYEPKLATCKFTTEEFEGLKLEKEKAESNLASCEADLEATKTKLQETEKLLAEVKSDLESAQKSNGMGETQLKCMVESYRSLETRSSELEIELTSLKGKIENLEDELHDEKENHREALAKCQELEEQLQRNNQNCPNCSVIEDDPKSKQDNELAAAAEKLAECQETILLLGKQLKSMCPQTEQVASSPSQEQQALNPEEEEYATSTNPQDSKLSSPSDKDTPSMNTMKSPVASKHRHTKSNSSSSSSGLTPEKHSRGFSRFFSTKAK
notes: TCS1, Arabidopsis thaliana, At1g19835, a 982-amino-acid coiled-coil protein; also called MBP-TCS1 fusion protein; source: E. coli Rosetta (DE3); bacterial lysate in the pull-downs
stoichiometry N: ~0.38 M MBP-TCS1 per mole of tubulin dimers
